Data published in patent publication US20230391872A1 (ANAPTYSBIO, published 2023).

Assays:
[1] = molecular target: cynomolgus monkey BTLA on cells (stably transfected 293c18 clone 1G5; cynomolgus peripheral blood T and B cells) (cynomolgus monkey); assay: flow cytometry dot plot, CD3 (PerCP Cy5.5) against BTLA (APC), lysed cynomolgus monkey whole blood, antibody at 33 nM
[2] = molecular target: human BTLA on cells (stably transfected 293c18 cells; human peripheral blood T and B cells) (human) (UniProt Q7Z6A9); assay: flow cytometry (MFI) on gated CD4+ T cells of human PBMC, APC-labelled antibody [left panel (Naive CD4+ T cells]
[3] = molecular target: human BTLA on cells (stably transfected 293c18 cells; human peripheral blood T and B cells) (human) (UniProt Q7Z6A9); assay: flow cytometry (MFI) on gated CD8+ T cells of human PBMC, APC-labelled antibody [middle panel (Naive CD8+ T cells]
[4] = molecular target: T1, purified recombinant BTLA-ECD (Example 19)
T1 sequence (Q7Z6A9 31-157, species assumed, looked up): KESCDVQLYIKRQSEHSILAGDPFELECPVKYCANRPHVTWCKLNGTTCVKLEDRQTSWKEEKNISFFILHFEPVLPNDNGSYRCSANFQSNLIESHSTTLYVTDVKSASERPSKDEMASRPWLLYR

[5] = molecular target: T2, human BTLA ECD-his (monomeric human BTLA-his) (human, UniProt Q7Z6A9 31-157); assay: SPR, Biacore T200, antibody captured on anti-human IgG, monomeric human BTLA-his as analyte, 25 °C, 1:1 model; 6G3 IgG1 (APE10585.04) captured on the chip; human BTLA-his analyte
T2 construct: extracellular domain; also called human BTLA extracellular domain
T2 sequence (looked up): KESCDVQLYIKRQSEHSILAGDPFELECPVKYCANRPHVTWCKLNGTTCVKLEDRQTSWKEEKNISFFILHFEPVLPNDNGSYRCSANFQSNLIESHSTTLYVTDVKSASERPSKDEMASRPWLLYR
Procedure: (§1) Surface plasmon resonance (SPR) analyses were carried out using a Biacore T200 (GE Healthcare Life Sciences). Kinetic constants were determined using a 1:1 binding model in the Biacore T200 Evaluation Software to calculate on- and off-rates (kₐ and kd, respectively), and dissociation constants as a measure of overall affinity (KD). Anti-human IgG (GE Healthcare Life Sciences) was immobilized on a CMS chip using EDC-activated amine coupling chemistry (420 seconds contact at a flow rate of 10 μl/min). Antibodies (APE10585.04 6G3 IgG1 and APE10840.05 6G3 IgG4), each at 0.5 μg/m1) were captured in a 60 second contact with the flow cell using a flow rate of 10 μl/min. Monomeric human BTLA-his or cynomolgus monkey BTLA-his at 60 nM, 20 nM, 6.7 nM and 2.2 nM concentrations was flowed over captured antibody (480 seconds association, 1800 seconds dissociation). Runs were at 25° C. and used buffer containing 10 mM HEPES, pH 7.6, 150 mM NaCl, 3 mM EDTA, 0.05% polysorbate 20 (HBS-EP+, pH 7.6; Teknova) for the mobile phase and all dilutions. At the end of each cycle, bound antigen was removed by regeneration with two successive exposures (60 seconds and 90 seconds) to 3 M MgCl2 (30 μl/min). Sensorgrams and binding constants corresponding to the experiment are shown in FIG. 1 (human BTLA) and FIG. 1 (cynomolgus monkey BTLA). […]

[6] = molecular target: T2, human BTLA ECD-his (monomeric human …); assay: SPR (Biacore T200), antibody captured on anti-human IgG chip, monomeric BTLA-his flowed at 60, 20, 6.7 and 2.2 nM, 1:1 binding model, 25 C [upper left panel (Hu BTLA]
Procedure: (§2) Surface plasmon resonance (SPR) analyses were carried out using a Biacore T200 (GE Healthcare Life Sciences). Kinetic constants were determined using a 1:1 binding model in the Biacore T200 Evaluation Software to calculate on- and off-rates (kₐ and kd, respectively), and dissociation constants as a measure of overall affinity (KD). Anti-human IgG (GE Healthcare Life Sciences) was immobilized on a CMS chip using EDC-activated amine coupling chemistry (420 seconds contact at a flow rate of 10 μl/min). Antibodies (APE10585.04 6G3 IgG1 and APE10840.05 6G3 IgG4), each at 0.5 μg/m1) were captured in a 60 second contact with the flow cell using a flow rate of 10 μl/min. Monomeric human BTLA-his or cynomolgus monkey BTLA-his at 60 nM, 20 nM, 6.7 nM and 2.2 nM concentrations was flowed over captured antibody (480 seconds association, 1800 seconds dissociation). Runs were at 25° C. and used buffer containing 10 mM HEPES, pH 7.6, 150 mM NaCl, 3 mM EDTA, 0.05% polysorbate 20 (HBS-EP+, pH 7.6; Teknova) for the mobile phase and all dilutions. At the end of each cycle, bound antigen was removed by regeneration with two successive exposures (60 seconds and 90 seconds) to 3 M MgCl2 (30 μl/min). Sensorgrams and binding constants corresponding to the experiment are shown in FIG. 1 (human BTLA) and FIG. 1 (cynomolgus monkey BTLA). Antibody capture levels in resonance units (RU) are listed at the right side of each panel.

[7] = molecular target: T3, cynomolgus monkey BTLA ECD-his (monomeric cynomolgus monkey BTLA-his) (cynomolgus monkey, UniProt A0A2K5W7M7 31-157); assay: SPR (Biacore T200), antibody captured on anti-human IgG chip, monomeric BTLA-his flowed at 60, 20, 6.7 and 2.2 nM, 1:1 binding model, 25 C [lower left panel (Cyno BTLA]
T3 construct: extracellular domain; also called cynomolgus monkey BTLA extracellular domain
T3 sequence: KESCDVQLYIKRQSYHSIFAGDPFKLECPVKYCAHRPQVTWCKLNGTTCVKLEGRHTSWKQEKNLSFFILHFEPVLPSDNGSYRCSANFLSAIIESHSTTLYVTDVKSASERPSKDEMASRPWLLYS
Procedure: as §2

[8] = molecular target: T3, cynomolgus monkey BTLA ECD-his …; assay: SPR, Biacore T200, antibody captured on anti-human IgG, monomeric cynomolgus monkey BTLA-his as analyte, 25 °C, 1:1 model; 6G3 IgG1 (APE10585.04) captured on the chip; cynomolgus BTLA-his analyte
Procedure: as §1

[9] = molecular target: T4, recombinant human BTLA monomer, hBTLA amino acids 31-155 followed by a 6-his tag (human, UniProt Q7Z6A9 31-155); assay: hydrogen-deuterium exchange with recombinant human BTLA monomer
T4 construct: Antigen of the hydrogen-deuterium exchange experiments
T4 sequence: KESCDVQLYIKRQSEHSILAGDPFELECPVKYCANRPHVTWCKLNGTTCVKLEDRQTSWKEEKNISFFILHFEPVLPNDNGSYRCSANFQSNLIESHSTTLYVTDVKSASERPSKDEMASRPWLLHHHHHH
Procedure: Hydrogen-deuterium exchange mapping of the peptides on BTLA bound by the 6G3 and 10D8 antibodies disclosed herein was performed using recombinant human BTLA monomer. […] FIGS. 7A, 7B, and 7C show a ribbon model of the crystal structure of human BTLA extracellular domain (black) in complex with a space-filling model of the crystal structure of human HVEM extracellular binding domain (light gray) rendered in PyMOL from Protein Data Bank structure (Compaan et al., J. Biol Chem 280: 39553-39561 (2005)). FIG. 7A summarizes a hydrogen-deuterium exchange experiment using the 6G3 antibody (APE12839.05 (H Chain SEQ ID NO: 144, L Chain SEQ ID NO: 174)), FIG. 7B summarizes a hydrogen-deuterium exchange experiment using the 10D8 antibody (APE11482.06), and FIG. 7C summarizes a hydrogen-deuterium exchange experiment using a reference BTLA antagonist antibody (APE10693.17). For each experiment, the BTLA/antibody mixture or BTLA alone was deuterium labeled for 4, 10, or 60 minutes in order to see the exchange kinetics. After incubation, the BTLA protein was subjected to rapid enzymatic proteolysis at acidic pH and the incorporation of deuterium into resulting peptides quantified by liquid chromatography-mass spectrometry.

“APC-Mouse Anti-Human CD272 (BTLA) reference antibody, clone J168-540 (BD Biosciences)” showed a Q8-2 (percent CD3+ BTLA+ cells) [1] of 35.8%, a Q8-4 (percent CD3- BTLA+ cells) [1] of 28% and a Total BTLA (percent of gated cells BTLA-positive) [1] of 63.9%.

“reference anti-BTLA antibody MIH26 (APC-labeled, BioLegend)” gave an EC50 (read off the curve) [2] of 2 nM and an EC50 (read off the curve) [3] of 3 nM.

B1: purified recombinant Proteinase 3 (PR3) (protein)
chain: IVGGHEAQPHSRPYMASLQMRGNPGSHFCGGTLIHPSFVLTAAHCLRDIPQRLVNVVLGAHNVRTQEPTQQHFSVAQVFLNNYDAENKLNDVLLIQLSSPANLSASVATVQLPQQDQPVPHGTQCLAMGWGRVGAHDPPAQVLQELNVTVVTFFCRPHNICTFVPRRKAGICFGDSGGPLICDGIIQGIDSFVIWGCATRLFPDFFTRVALYVDWIRSTLR
With B1 the “proteolytic cleavage after co-incubation up to 60 minutes (gel lanes)” value [4] was “soluble BLTA-ECD was cleaved into multiple smaller fragments”.

B2: 6G3 IgG1 anti-BTLA antibody (APE10585.04) (antibody, V domains shown)
VH: QVQLVQSGAEVKKPGSSVKVSCKASGYVFSTSWMNWVRQAPGQGLEWMGRIYPGDADTNYVGKFKGRVTITADKSTTTAYMELSSLRSEDTAVYFCAKSGTFNFGNYRWYFDVWGKGTTVTVSS
VL: AIQLTQSPSSLSASVGDRVTITCRVSENIYSHLAWYQQKPGKAPKLLIYAATNLALGVPSRFSGSGSGTDYTLTISSLQPEDFATYYCQLFWGPPLTFGGGTKVEIKR
notes: Same variable regions as 6G3 IgG4, in IgG1 format; also called APE10585.x; APE10585.04 6G3 IgG1
For B2, the Kd [5] was about 5 nM, the Kd [6] was 3.56 nM and the koff [6] was 0.000245 s⁻¹. For the same molecule, the kon [6] was 68900 M⁻¹ s⁻¹, the Kd [7] was 10.8 nM and the koff [7] was 0.00295 s⁻¹. The kon [7] was 272000 M⁻¹ s⁻¹ and the Kd [8] was about 11 nM.

B3: 10D8 antibody (APE11482.06) (antibody, V domains shown)
VH: QVQLVQSGAEVKKPGASVKVSCKASGYTLTDYTIHWVRQAPGQRLEWMGWIYPGSGNTKYNDEFKVRVTITRDTSASTAYMELSSLRSEDTAVYYCARRNYYAMEYWGQGTTVTVSS
VL: DIQMTQSPSSLSASVGDRVTITCKASQNVFTNVAWFQQKPGKAPKPLIYSASYRYSGVPSRFSGSGSGTDFTLTISSLQPEDFATYYCQQYSTYPYTFGQGTKLEIKR
B3: binds [9].
